This is an account of results in the DeepSol protein solubility set.

The series in a line: soluble on expression in E. coli; label from the status in PepcDB or PDB records.
For “GPGSMTVLRRMRLTFVGTGVSSAVPVIGHLTTDCACRDAIANPSGPNRRNNVSLLISLPFAEGKSGVEWHHVLIDCGKTFRSAYMRVLAPMRVQYVDALLITHGHADAMHCVEELCGMQAEAAARYAQSVSPSSLPSSAGRTLASAVVPRTLRRVPTFLTAPTLDQIAMVSPELVTQSFHIGAAPTTGTAYHSALAATADMTARSSSSAEVLSTVMDIFYMDDTKPQRMHVPFGPLSLAASAARGVNATDAASDLPFYSFPVEHGKGYISMAWVFGRGTAFKSRQTQQQQQGSCVVYISDVSHIPATSMAFLQDLVKIDVLVLDLLAEHGAPSASHYCADEAIPLVVALAPRRTYFVGMFCSLEHHRTNEAFARELAELKMRYRDELEVVVPGSSAPAVTDTDREKKLAFVNRVCSMELAYDGQELDMDA”, the “soluble on expression in E. coli” value was “not soluble”. The value for “GPGSMVFFGVGATGGTGCGPKQACFPWLENSSATRCQRGGRINLRFMLDLPQGDTEAPSTNQKRAVYAFCPIVDELQVFTLKGAGRVSSLLQKTSSSGQASITPNPAPRYLSVFGFGRSGQKEYPERDVSNSTVVIAMRDIGLCNSPDSVAIVNMVILTIGMHDGKFNYISSDADTKEPDDSESGIPSGNSSGTGSPMESVQPAMVGFRPTCDESDHCIFSPTSPCVGPIRGMKNCGACYNTPDDIEGASIQVWTSYQGTDLERQPLLSGGMDPMGFRKFAGGKFVGNIKYAVSKIENTASGMMPGDETNSTP” was “not soluble”; that for “GPGSYLMLLGLNLIRLLVCSRIAEFHSEMEKIPFATHGSNLYIRFAVGLERYLMEGSYNKLLTSRKKVPSNEYLPVVEMLEQTVRDEVANCIPESYRQLSIPAAQRILMVDTEAKVREIGAKREWALSADGTHFVFTREDDTLQKEIPFKEMIEQHINFVADLQNIV” was “not soluble”. Consider “GPGTFGTAKARYDFCARDRSELSLKEGDIIKILNKKGQQGWWRGEIYGRIGWFPSNYVEEDYSEYLPETGGGSGSSMTYKLILNGKTLKGETTTEAVDAATAEKVFKQYANDNGVDGEWTYDDATKTFTVTEHSLEHHHHHH”, for which the “soluble on expression in E. coli” value is listed as “soluble”. With “GPHMAVVDDLAPGMDSSPPSEDYGRQPPQDLAAEQSVLGGMLLSKDAIADVLERLRPGDFYRPAHQNVYDAILDLYGRGEPADAVTVAAELDRRGLLRRIGGAPYLHTLISTVPTAANAGYYASIVAEKALLRRLVEAGTRVVQYGYAGAEGADVAEVVDRAQAEIYDVADRRLSEDFVALEDLLQPTMDEIDAIASSGG” the entry was “soluble”; with “GPHVKSGLQIKKNAIIDDYKVTSQVLGLGINGKVLQIFNKRTQEKFALKMLQDCPKARREVELHWRASQCPHIVRIVDVYENLYAGRKCLLIVMECLDGGELFSRIQDRGDQAFTEREASEIMKSIGEAIQYLHSINIAHRDVKPENLLYTSKRPNAILKLTDFGFAKETTGEKYDKSCDMWSLGVIMYILLCGYPPFYSNHGLAISPGMKTRIRMGQYEFPNPEWSEVSEEVKMLIRNLLKTEPTQRMTITEFMNHPWIMQSTKVPQTPLHTSRVLKEDKERWEDVKEEMTSALATMR”, “soluble”. With “GPLGSMSGPVPSRARVYTDVNTHRPREYWDYESHVVEWGNQDDYQLVRKLGRGKYSEVFEAINITNNEKVVVKILKPVKKKKIKREIKILENLRGGPNIITLADIVKDPVSRTPALVFEHVNNTDFKQLYQTLTDYDIRFYMYEILKALDYCHSMGIMHRDVKPHNVMIDHEHRKLRLIDWGLAEFYHPGQEYNVRVASRYFKGPELLVDYQMYDYSLDMWSLGCMLASMIFRKEPFFHGHDNYDQLVRIAKVLGTEDLYDYIDKYNIELDPRFNDILGRHSRKRWERFVHSENQHLVSPEALDFLDKLLRYDHQSRLTAREAMEHPYFYTVVKDQARMG” the entry was “soluble”. The value for “GPLGSNMDAAEVEFLAEKELVTIIPNFSLDKIYLIGGDLGPFNPGLPVEVPLWLAINLKQRQKCRLLPPEWMDVEKLEKMRDHERKEETFTPMPSPYYMELTKLLLNHASDNIPKADEIRTLVKDMWDTRIAKLRVSADSFVRQQEAHAKLDNLTLMEINTSGTFLTQALNHMYKLRTNLQPLESTQSQDF” was “soluble”; that for “GPMATESPNSVQKIVVHLRATGGAPILKQSKFKVSGSDKFANVIDFLRRQLHSDSLFVYVNSAFSPNPDESVIDLYNNFGFDGKLVVNYACSMAWG” was “soluble”; that for “GPQKRCLFVCRHGERMDVVFGKYWLSQCFDAKGRYIRTNLNMPHSLPQRSGGFRDYEKDAPITVFGCMQARLVGEALLESNTVIDHVYCSPSLRCVQTAHNILKGLQQDNHLKIRVEPGLFEWTKWVAGSTLPAWIPPSELAAANLSVDTTYRPHIPVSKLAISESYDTYINRSFQVTKEIISECKSKGNNILIVAHASSLEACTCQLQGLSPQNSKDFVQMVRKIPYLGFCSCEELGETGIWQLTDPPILPLTHGPTGGFNWRETLLQE” was “soluble”. On to “GPVDPAEYDAVWSAWRRAAPAEESRGRAAVVQKMRACLNNGNAVLNVGESGLTTLPDCLPAHITTLVIPDNNLTSLPALPPELRTLEVSGNQLTSLPVLPPGLLELSIFSNPLTHLPALPSGLCKLWIFGNQLTSLPVLPPGLQELSVSDNQLASLPALPSELCKLWAYNNQLTSLPMLPSGLQELSVSDNQLASLPTLPSELYKLWAYNNRLTSLPALPSGLKELIVSGNRLTSLPVLPSELKELMVSGNRLTSLPMLPSGLLSLSVYRNQLTRLPESLIHLSSETTVNLEGNPLSERTLQALREITSAPGYSGPIIRFDMAGASAPRETRALHLAAADWLVPAREGEPAPADRWHMFGQEDNADAFSLFLDRLSETENFIKDAGFKAQISSWLAQLAEDEALRANTFAMATEATSSCEDRVTFFLHQMKNVQLVHNAEKGQYDNDLAALVATGREMFRLGKLEQIAREKVRTLALVDEIEVWLAYQNKLKKSLGLTSVTSEMRFFDVSGVTVTDLQDAELQVKAAEKSEFREWILQWGPLHRVLERKAPERVNALREKQISDYEETYRMLSDTELRPSGLVGNTDAERTIGARAMESAKKTFLDGLRPLVEEMLGSYLNV”, for which the “soluble on expression in E. coli” value was “soluble”.

In the case of “GQDSEVLLDGVAKLSSHNNVIEDAIEGVDLTLKGKSEPNKPPAEIGVEYDRQSVRSDIENFVSAYNSFYQTSQALSSVDPTTGQKGPLAGDSTVRSADSRLKAVFSSRIDQAPENLKSLTEFGITTTRQGTLEINYDMLDRQLNNNFNELEKFFGGNTGFAKRIEDAIHGITGITGSIRTREKSLTEQNYRLNDDQAALDRRMEGLEKRTHAKFTAMQDATGKMQGQLGALMSALG”, the “soluble on expression in E. coli” value is listed as “not soluble”. The value for “GRHLFVLEREAKLKDYLATADITRVEKGDTKFGVVTAGTCYPYLREVLPNATVLKLGASWPLPDTLLREFCASVDQVFVVEELEPIIEKEVASLGIKVEGKRLFPRAGEFSPEVVRAGFVQAGLLPAPPSYNAWVPEPVVRPPVLCAGCPHTSSFLAVRASGARVAGDIGCYTLAVLDPLRGIDTCVAMGSSIGNAIGMAKAGEAKPVVATIGDSTFLHAGLPALIDAVYNQANIAVVLLDNHITAMTGGQEH” was “not soluble”. Regarding “GSAHRFPALTQEQKKELSEIAQSIVANGKGILAADESVGTMGNRLQRIKVENTEENRRQFREILFSVDSSINQSIGGVILFHETLYQKDSQGKLFRNILKEKGIVVGIKLDQGGAPLAGTNKETTIQGLDGLSERCAQYKKDGVDFGKWRPVLRIADQCPSSLAIQENANALARYASICQQNGLVPIVEPEVIPDGDHDLEHCQYVTEKVLAAVYKALNDHHVYLEGTLLKPNMVTAGHACTKKYTPEQVAMATVTALHRTVPAAVPGICFLSGGMSEEDATLNLNAINLCPLPKPWKLSFSYGRALQASALAAWGGKAANKEATQEAFMKRAMANCQAAKGQYVHTGSSGAASTQSLFTACYTY”, the “soluble on expression in E. coli” value is listed as “soluble”. The value for “GSASAQSRTLAGGIHATDLNDKSVQRALDFAISEYNKVINKDEYYSRPLQVMAAYQQIVGGVNYYFNVKFGRTTCTKSQPNLDNCPFNDQPKLKEEEFCSFQINEVPWEDKISILNYKCRKV” was “soluble”. With “GSDDLVGVSVRPKVPLRTMSYKLAIDMSHFIKEKGGLEGIYYSARRHRILDIYLEKEEGIIPDWQDYTSGPGIRYPKTFGWLWKLVPVNVSDEAQEDEEHYLMHPAQTSQWDDPWGEVLAWKFDPTLAYTYEAYVRYPEEFGS” the entry was “soluble”; with “GSDELKWNKGYSLPNLLEVTDQQKELSQWTLGDKVKLEEGRFVLTPGKNTKGSLWLKPEYSIKDAMTIEWTFRSFGFRGSTKGGLAFWLKQGNEGDSTELFGGSSKKFNGLMILLRLDDKLGESVTAYLNDGTKDLDIESSPYFASCLFQYQDSMVPSTLRLTYNPLDNHLLKLQMDNRVCFQTRKVKFMGSSPFRIGTSAINDASKESFEILKMKLYDGVIEDSL”, “soluble”. On to “GSDSLIRDLSGLSQKMVQTLLEQIRSNYDDYLTFSNTYTDEENETLINLEKTQSDLQKFMTQLDHLIKDDISNTQEIIKDVLEYLKKLDEIYGSLRNHSQLTEALSLGKRLSKSLHEMCGIEPLEEEICSGLIEQLYKLITASRRILESCADSNSPYIHHLRNDYQDLLQEFQISLKILTEKCLENPSSLQNLSLTLVSIIKTA”, for which the “soluble on expression in E. coli” value is “soluble”. The value for “GSEELLDLFNRQVTQEFTASQVYLSASIWFDQNDWEGMAAYMLAESAEEREHGLGFVDFANKRNIPIELQAVPAPVSCAEWSSPEDVWQSILELEQANTRSLLNLAEAASTCHDFAVMAFLNPFHLQQVNEEDKIGSILAKVTDENRTPGLLRSLDVVSFLGPCLFRS” was “soluble”; that for “GSFTGQGDFHLLDHRGRARCKADFRGQWVLMYFGFTHCPDICPDELEKLVQVVRQLEAEPGLPPVQPVFITVDPERDDVEAMARYVQDFHPRLLGLTGSTKQVAQASHSYRVYYNAGPKDEDQDYIVDHSIAIYLLNPDGLFTDYYGRSRSAEQISDSVRRHMAAFRSVLS” was “soluble”.

Turning to “GSHMASMTGGQQMGRGSENLYFQGNPILAGLGFSLPKRQVSNHDLVGRINTSDEFIVERTGVRTRYHVEPEQAVSALMVPAARQAIEAAGLLPEDIDLLLVNTLSPDHHDPSQACLIQPLLGLRHIPVLDIRAQCSGLLYGLQMARGQILAGLARHVLVVCGEVLSKRMDCSDRGRNLSILLGDGAGAVVVSAGESLEDGLLDLRLGADGNYFDLLMTAAPGSASPTFLDENVLREGGGEFLMRGRPMFEHASQTLVRIAGEMLAAHELTLDDIDHVICHQPNLRILDAVQEQLGIPQHKFAVTVDRLGNMASASTPVTLAMFWPDIQPGQRVLVLTYGSGATWGAALYRKPEEVNRPC”, the “soluble on expression in E. coli” value is given as “soluble”. The value for “GSHMGSLDETTYERLAEETLDSLAEFFEDLADKPYTFEDYDVSFGSGVLTVKLGGDLGTYVINKQTPNKQIWLSSPSSGPKRYDWTGKNWVYSHDGVSLHELLAAELTKALKTKLDLSSLAYSGKDA” was “soluble”.

Consider “GSHMKNPYSNQIEREELILKYLPLVKAIATNIKKHLPEDVDIRDLISYGVIGLIKAVDNLSTENPKRAEAYIKLRIKGAIYDYLRSLDFGSRQVREKERRIKEVVEKLKEKLGREPTDEEVAKELGISTEELFKTLDKINFSYILSLEEVFRDFARDYSELIPSSTNVEEEVIKRELTEKVKEAVSKLPEREKLVIQLIFYEELPAKEVAKILETSVSRVSQLKAKALERLREMLSNPL”, for which the “soluble on expression in E. coli” value is “soluble”. As for “GSHMLEVLTQKHKPAESQQQAAETEGSCNKKDQNECKSPCKWHNDAENKKCTLDKEEAKKVADETAKDGKTGNTNTTGSS”, the “soluble on expression in E. coli” value is on record as “soluble”.
